T1: Human OX40 (R&D Systems, 3388-OX) (human, UniProt P43489 29-216)
T1 construct: bought; also called OX40-Fc; Human OX40 (R&D systems, #3358_OX)
T1 sequence (looked up): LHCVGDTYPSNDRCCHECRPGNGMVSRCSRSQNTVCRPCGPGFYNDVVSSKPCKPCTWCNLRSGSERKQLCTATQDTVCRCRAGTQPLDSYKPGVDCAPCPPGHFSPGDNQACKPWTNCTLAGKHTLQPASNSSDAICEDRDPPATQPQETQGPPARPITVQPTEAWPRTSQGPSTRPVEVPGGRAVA

T2: murine OX40 (murine, UniProt P47741 20-211, limits assumed)
T2 construct: also called mouse OX40
T2 sequence (looked up): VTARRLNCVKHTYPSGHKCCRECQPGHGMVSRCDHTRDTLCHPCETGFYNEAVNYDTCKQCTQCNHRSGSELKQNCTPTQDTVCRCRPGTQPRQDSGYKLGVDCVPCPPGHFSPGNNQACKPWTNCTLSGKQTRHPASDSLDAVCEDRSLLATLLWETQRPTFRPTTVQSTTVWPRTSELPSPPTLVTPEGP

T3: Construct 84: full length OX40 (human, UniProt P43489 29-277)
T3 construct: whole, on cells
T3 sequence (looked up): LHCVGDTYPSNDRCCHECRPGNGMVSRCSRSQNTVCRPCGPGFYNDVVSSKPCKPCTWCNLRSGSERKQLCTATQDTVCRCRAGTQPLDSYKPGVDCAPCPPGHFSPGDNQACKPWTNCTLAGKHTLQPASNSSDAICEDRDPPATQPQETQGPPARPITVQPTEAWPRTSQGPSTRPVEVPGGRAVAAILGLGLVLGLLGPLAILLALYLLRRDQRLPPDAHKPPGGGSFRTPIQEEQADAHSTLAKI

T4: human OX40 overexpressed on CHO cells (human, UniProt P43489 29-214; P25942 194-277)
T4 construct: extracellular domain;domain: transmembrane and intracellular part; also called hOX40; huOX40 (CHO)
T4 sequence (looked up): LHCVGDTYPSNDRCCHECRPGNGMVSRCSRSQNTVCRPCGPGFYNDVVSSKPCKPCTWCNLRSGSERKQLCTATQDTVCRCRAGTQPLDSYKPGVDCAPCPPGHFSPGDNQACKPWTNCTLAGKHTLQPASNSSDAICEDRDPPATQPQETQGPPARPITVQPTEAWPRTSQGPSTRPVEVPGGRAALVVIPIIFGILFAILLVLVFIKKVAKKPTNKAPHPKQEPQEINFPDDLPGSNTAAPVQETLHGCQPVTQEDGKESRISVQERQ

B1: 1168/1135 (antibody, V domains shown)
VH: EVQLLESGGGLVQPGGSLRLSCAASGFTFSGSSMSWVRQAPGKGLEWVSSISYYGGYTYYADSVKGRFTISRDNSKNTLYLQMNSLRAEDTAVYYCARYFPHYYFDYWGQGTLVTVSS
VL: not shown
notes: OX40 antibody, tested as IgG
B2: 1542/1135 (antibody, V domains shown)
VH: EVQLLESGGGLVQPGGSLRLSCAASGFTFGSSSMYWVRQAPGKGLEWVSGIGYYSYSTSYADSVKGRFTISRDNSKNTLYLQMNSLRAEDTAVYYCARGYPHHYFDYWGQGTLVTVSS
VL: not shown
notes: OX40 antibody, tested as IgG
B3: 1526/1527 (antibody, V domains shown)
VH: EVQLLESGGGLVQPGGSLRLSCAASGFTFSGYSMYWVRQAPGKGLEWVSGIGYSGYGTYYADSVKGRFTISRDNSKNTLYLQMNSLRAEDTAVYYCARYYFHDYAAYSLDYWGQGTLVTVSS
VL: DIQMTQSPSSLSASVGDRVTITCRASQSISSYLNWYQQKPGKAPKLLIYAASSLQSGVPSRFSGSGSGTDFTLTISSLQPEDFATYYCQQYGSDSLLTFGQGTKLEIK
notes: OX40 antibody, tested as IgG
B4: 1482/1483 (antibody, V domains shown)
VH: EVQLLESGGGLVQPGGSLRLSCAASGFTFSSYAMSWVRQAPGKGLEWVSYISYYSGYTYYADSVKGRFTISRDNSKNTLYLQMNSLRAEDTAVYYCARGYGYLDYWGQGTLVTVSS
VL: DIQMTQSPSSLSASVGDRVTITCRASQSISSYLNWYQQKPGKAPKLLIYAASSLQSGVPSRFSGSGSGTDFTLTISSLQPEDFATYYCQQYGSLLTFGQGTKLEIK
notes: OX40 antibody, tested as IgG

Each binder was assayed against T1, Human OX40 (R&D Systems, 3388-OX) (assay: ELISA, plates coated with human OX40, IgG).
Procedure: (§1) ELISA plates were coated with human OX40 (R&D Systems, 3388-OX), CD40 (Ancell), or CD137 (R&D Systems) at 0.1 or 0.5 μg/ml. The ELISA plates were washed with PBST and then blocked with PBST+2% BSA for 1 h at room temperature and then washed again with PBST. The antibodies were added in dilution series to the ELISA plates for 1 h at room temperature and then washed with PBST. Binding was detected using goat anti human kappa light chain HRP, incubated for 1 h at room temperature. SuperSignal Pico Luminescent was used as substrate and luminescence was measured using Fluostar Optima.

EC50 [nM] | Binder
< 1 | B1
< 1 | B2
< 1 | B3
< 1 | B4

These binders were tested against T2, murine OX40 (assay: ELISA).

binding result | Binder
no binding | B1
no binding | B2
no binding | B3
no binding | B4

These binders were tested against CD40 (Ancell) (UniProt P25942 21-193, limits assumed) (assay: ELISA, CD40 coated).
CD40 (Ancell), sequence (P25942 21-193 limits assumed): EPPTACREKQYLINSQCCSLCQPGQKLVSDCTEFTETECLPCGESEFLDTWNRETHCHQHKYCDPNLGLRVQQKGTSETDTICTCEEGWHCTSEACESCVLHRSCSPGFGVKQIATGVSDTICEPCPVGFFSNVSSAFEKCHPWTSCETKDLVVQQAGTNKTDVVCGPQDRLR
Procedure: as §1

binding result | Binder
no binding | B1
no binding | B2
no binding | B3
no binding | B4

The binders below were run against T3, Construct 84: full length OX40 (assay: flow cytometry, 293-F cells transfected with the construct).
Procedure: The transfected cells were incubated with human OX40 antibodies, human OX40L (hOX40L, RnD Systems), mouse OX40L (mOX40L, RnD Systems) and controls for 30 min 4° C. and then detected with a-huIgG-PE (Jackson Immunoresearch) 30 min 4° C. Cells were analyzed with FACS Verse (BD Biosciences). Binding to the different chimeric constructs were calculated as relative (mean fluorescence intensity) MFI compared to the binding of the isotype control.

relative MFI [fold over isotype control] | Binder
29.6 | B1
29.4 | B2
21.4 | B3
24.9 | B4

These binders were tested against T1, Human OX40 (R&D Systems, 3388-OX) (assay: SPR Biacore, human OX40 amine-coupled on CM5, antibody injected, 1:1 Langmuir).
Procedure: Human OX40 (R&D systems, #3358_OX) was immobilized to the Biacore™ sensor chip, CM5, using conventional amine coupling. The tested antibodies and controls (serially diluted 1/3 or 1/2 100-2 nM) were analyzed for binding in HBS-P (GE, #BR-1003-68) at a flow rate of […]. The association was followed for 3 minutes and the dissociation for 20 minutes. Regeneration was performed twice using 50 mM NaOH for 60 seconds. The kinetic parameters and the affinity constants were calculated using 1:1 Langmuir model with drifting baseline. […] The kinetic parameters and the affinity constants were calculated using BIAevaluation 4.1 software.

Kd [nM] | koff [s⁻¹] | kon [M⁻¹ s⁻¹] | Binder
0.327 | 0.000169 | 518000 | B1
0.463 | 0.0001 | 216000 | B2
0.43 | 0.000187 | 435000 | B3
0.753 | 0.000584 | 776000 | B4

What follows are binders tested against Macaca mulatta OX40 on HEK cells (Macaca mulatta; human) (assay: flow cytometry, macOX40-HEK cells; ends of the 95% confidence interval).
Procedure: For the assay, the transfected cells were incubated with the test antibodies and controls for 30 min at 4° C. and then detected with a-huIgG-PE (Jackson Immunoresearch) 30 min 4° C. Cells were analyzed by flow cytometry with FACS Verse (BD Biosciences).

EC50 [µg/mL] | Binder
0.0905 to 0.194 | B1
0.722 to 1.41 | B2
0.292 to 0.589 | B3
0.157 to 0.312 | B4

These binders were tested against CD137 (R&D Systems) (UniProt Q07011 24-186, limits assumed) (assay: ELISA, CD137 coated).
CD137 (R&D Systems), sequence (Q07011 24-186 limits assumed): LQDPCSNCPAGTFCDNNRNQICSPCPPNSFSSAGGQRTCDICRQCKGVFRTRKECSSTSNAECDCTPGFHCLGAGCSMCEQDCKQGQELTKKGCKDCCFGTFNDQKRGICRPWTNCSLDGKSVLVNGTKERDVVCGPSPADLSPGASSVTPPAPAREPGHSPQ
Procedure: as §1

binding result | Binder
no binding | B1
no binding | B2
no binding | B3
no binding | B4

The binders below were run against T4, human OX40 overexpressed on CHO cells (assay: flow cytometry, cells with human OX40; ends of the 95% confidence interval).

EC50 [µg/mL] | Binder
0.0636 to 0.131 | B1
0.322 to 0.552 | B2
0.172 to 0.429 | B3
0.082 to 0.182 | B4

From US20190161555A1 (ALLIGATOR BIOSCIENCE, published 2019)
